# According to article doi:10.1101/2025.11.03.686288:
# How the values were obtained:
# [1] = target: TbPEX38 (65-134) (T. brucei); assay: ITC
# [2] = target: C-terminal His6-tagged PEX19 full-length (T. brucei); assay: AlphaScreen or HTRF
# [3] = target: N-terminal GST-tagged PEX38 full-length (T. brucei); assay: AlphaScreen or HTRF
substance,measurement,setting,value
TbPEX19 (1-50-SGGY) (domain or fragment),Kd,[1],3000 nM
GST-PEX3Δ1-44 (domain or fragment),fold higher affinity for PEX19 than PEX38,[2],30 fold
untagged PEX38 full-length (natural protein),IC50,[2],950 nM
TbPEX38 (65-134) (domain or fragment),IC50,[2],446 nM
C-terminal His6-tagged PEX19 N50 (domain or fragment),fold weaker interaction with PEX38^FL than PEX19^FL (AlphaScreen signal),[3],10 fold
